The test system of assay [1] is N^α-Ac-Lys-(D)-Ala-(D)-Ala peptide. Nature of the assay: SPR binding to vancomycin-susceptible bacterial cell wall model. The note with it: for Kd: (D)-Ala-(D)-Ala surface. An excerpt:
SPR spectroscopy is a real-time kinetic method that allows the measurement of the on-rate constant (kon), the off-rate constant (koff), and equilibrium dissociation constant KD (=koff/kon) for receptor-ligand interactions occurring on the surface (see, e.g., Rao, J.; et al., Chem. Biol. (Cambridge, Mass., U.S.) 1999, 6, 353-359; Rao, J.; et al., J. Am. Chem. Soc. 1999, 121, 2629-2630; Hong, S.; et al., Chem. Biol. (Cambridge, Mass., U.S.) 2007, 14, 107-115; Li, M.-H.; Eur. J. Med. Chem. 2012, 47, 560-572; Plantinga, A.; et al., ACS Med. Chem. Lett. 2011, 2, 363-367; Cooper, M. A.; et al., Bioorg. Med. Chem. 2000, 8, 2609-2616; each herein incorporated by reference in its entirety)). The experiments employed SPR spectroscopy to determine the binding constant KD for dendrimer-based multivalent vancomycin conjugates to the cell wall ligands immobilized on the chip surface as a model for the bacterial cell surface. The model surface was prepared by utilizing each CMS sensor chip which was treated to present N^α-Ac-Lys-(D)-Ala-(D)-Ala or N^α-Ac-(D)-Ala-(D)-Lac as the cell wall precursor on the surface, each representing a vancomycin-susceptible and vancomycin-resistant cell wall model, respectively (see, e.g., Rao, J.; et al., Chem. Biol. (Cambridge, Mass., U.S.) 1999, 6, 353-359; Rao, J.; et al., J. Am. Chem. Soc. 1999, 121, 2629-2630; each herein incorporated by reference in its entirety)). Such a peptide-presenting chip was prepared typically following a N-(3-dimethylaminopropyl)-N′-ethylcarbodiimide (EDC)-based amide coupling method at a surface peptide density of 0.12 ng/mm^2 (equivalent to 2.2×10^11 molecules/mm^2) (see, e.g., Hong, S.; et al., Chem. Biol. (Cambridge, Mass., U.S.) 2007, 14, 107-115; Plantinga, A.; et al., ACS Med. Chem. Lett. 2011, 2, 363-367; each herein incorporated by reference in its entirety)).
SPR spectroscopy. […]

Assay [2] deals with N^α-Ac-Lys-(D)-Ala-(D)-Lac peptide. The note with it: cited from earlier work.
Assay [3] shares this test system. Nature of the assay: SPR binding to vancomycin-resistant bacterial cell wall model. An excerpt: SPR spectroscopy is a real-time kinetic method that allows the measurement of the on-rate constant (kon), the off-rate constant (koff), and equilibrium dissociation constant KD (=koff/kon) for receptor-ligand interactions occurring on the surface (see, e.g., Rao, J.; et al., Chem. Biol. (Cambridge, Mass., U.S.) 1999, 6, 353-359; Rao, J.; et al., J. Am. Chem. Soc. 1999, 121, 2629-2630; Hong, S.; et al., Chem. Biol. (Cambridge, Mass., U.S.) 2007, 14, 107-115; Li, M.-H.; Eur. J. Med. Chem. 2012, 47, 560-572; Plantinga, A.; et al., ACS Med. Chem. Lett. 2011, 2, 363-367; Cooper, M. A.; et al., Bioorg. Med. Chem. 2000, 8, 2609-2616; each herein incorporated by reference in its entirety)). The experiments employed SPR spectroscopy to determine the binding constant KD for dendrimer-based multivalent vancomycin conjugates to the cell wall ligands immobilized on the chip surface as a model for the bacterial cell surface. […]

Assay [4] relates to Staphylococcus aureus. Nature of the assay: Turbidity assay (bacterial cell lysis / growth). The class given is cell-based. As to conditions: OD at 650 nm, 24 h. From the text: This example describes bacterial cell lysis experiments. Whether the binding of the vancomycin-conjugated dendrimer to the bacterial membrane causes bacterial cell lysis was next investigated. […] S.; et al., Antimicrob. Agents Chemother. 2009, 53, 3375-3383; herein incorporated by reference in its entirety)). On the other hand, the lack of such a mechanism would be more desirable for the diagnostic applications that aim for bacterial detection, isolation, and enumeration of whole cells. To determine the degree of cell lysis, a turbidity assay was employed. This assay quantitates the bacterial population in a culture by measuring the optical density (OD at 650 nm), and the cell populations are correlated with the degree of lysis (see, e.g., Chung, H. S.; et al., Proc. Natl. Acad. Sci. U.S.A. 2009, 106, 21872-21877; Lunde, C. S.; et al., Antimicrob. Agents Chemother. 2009, 53, 3375-3383; each herein incorporated by reference in its entirety)). Effects of the conjugates I-VI, VIII, IX on the cell growth rate were determined using the same Gram-positive strain Staphylococcus aureus and were presented as a function of the inhibitor concentration (FIGS. 12 and 13). […]
Turbidity assay. […] After incubation of the plates at 37° C. for 24 h, bacterial growth was examined by optical microscopy and reading an optical density (O. D.) value at 650 nm by an ELISA plate reader.

For assay [5], the target named is N^α-Ac-Lys-(D)-Ala-(D)-Ala peptide. As to conditions: vancomycin to (D)-Ala-(D)-Ala, literature; cited from earlier work.
Assay [6] concerns bacterial cells. The note with it: reported in literature; cited from earlier work.
In assay [7] the target is N^α-Ac-Lys-(D)-Ala-(D)-Lac peptide. Nature of the assay: SPR; ratio against free vancomycin. On the technique in general: Surface plasmon resonance follows binding to a sensor surface in real time, without labels.
Assay [8] has the same target. Nature of the assay: SPR (Biacore X), peptide immobilised on CM5 chip, Langmuir fit.
Assay [9] deals with N^α-Ac-Lys-(D)-Ala-(D)-Ala peptide. Nature of the assay: SPR; ratio against free vancomycin.
Assay [10] has the same target. Nature of the assay: SPR (Biacore X), peptide immobilised on CM5 chip, Langmuir fit.
Assay [11] deals with N^α-Ac-Lys-(D)-Ala-(D)-Lac peptide. Nature of the assay: SPR (Biacore X), peptide immobilised on CM5 chip, Scatchard analysis.
Assay [12] deals with N^α-Ac-Lys-(D)-Ala-(D)-Ala peptide. The assay is described as above.
Assay [13] addresses N^α-Ac-Lys-(D)-Ala-(D)-Lac peptide. Nature of the assay: SPR; vancomycin is the reference.
Assay [14] concerns the target N^α-Ac-Lys-(D)-Ala-(D)-Ala peptide. Nature of the assay: SPR; vancomycin is the reference.

Several values for one entry are separate records, joined by “and”; a condition that tells them apart may be missing. Equal values may be shown once. Read-outs that look alike come from different tables or passages of the source.

Turning to `CN[C@H](CC(C)C)C(=O)N[C@H]1C(=O)N[C@@H](CC(N)=O)C(=O)N[C@H]2C(=O)N[C@H]3C(=O)N[C@H](C(=O)N[C@H](C(=O)O)c4cc(O)cc(O)c4-c4cc3ccc4O)[C@H](O)c3ccc(c(Cl)c3)Oc3cc2cc(c3O[C@@H]2O[C@H](CO)[C@@H](O)[C@H](O)[C@H]2O[C@H]2C[C@](C)(N)[C@H](O)[C@H](C)O2)Oc2ccc(cc2Cl)[C@H]1O` [Vancomycin, vancomycin], the Kd (as a rule, the equilibrium constant for the complex coming apart) in [1] was 0.95 µM; in [1] (mean (SEM), vancomycin by Scatchard analysis), 0.95 µM; in assay [2] (vancomycin to (D)-Ala-(D)-Lac, literature), ~1000 µM and 1700 µM; in assay [3] ((D)-Ala-(D)-Lac surface, mean (SEM), vancomycin by Scatchard analysis), 1500 µM and ~1500 µM; in assay [5] it was around 1 µM. Further, the “SPR binding response to the (D)-Ala-(D)-Ala surface” value in assay [1] (in words, vancomycin at concentrations as low as 2 nM) is on record as “no detectable response”. Further, the “reduction in affinity of (D)-Ala-(D)-Lac surface to free vancomycin” value in [2] (relative to (D)-Ala-(D)-Ala, reported) is listed as around 1000 fold. In addition, the “SPR binding response to the (D)-Ala-(D)-Lac surface” value in assay [3] (in words) is listed as “very low responses”. The “concentration at which optical density decreased to the background level” value in assay [4] is at least 0.1 µM.
As to `CCCCCCCCCCNCCN[C@@]1(C)C[C@H](O[C@H]2[C@H](Oc3c4cc5cc3Oc3ccc(cc3Cl)[C@@H](O)[C@@H](NC(=O)[C@@H](CC(C)C)NC)C(=O)N[C@@H](CC(N)=O)C(=O)N[C@H]5C(=O)N[C@H]3C(=O)N[C@H](C(=O)N[C@H](C(=O)O)c5cc(O)c(CNCP(=O)(O)O)c(O)c5-c5cc3ccc5O)[C@H](O)c3ccc(c(Cl)c3)O4)O[C@H](CO)[C@@H](O)[C@@H]2O)O[C@@H](C)[C@H]1O` [telavancin], in assay [6], the “bactericidal activity / cell lysis” value is “potent bactericidal activity without causing cell lysis”.
Take I Ac-G5-(V)1.2: in [7], the valency-corrected β (= β ÷ n) turned out to be 18000 and the β (multivalent binding enhancement = KD vancomycin ÷ KD G5-(V)n) stood at 210000. Also, in [8], the Kd stood at 0.0071 µM, the koff (commonly a measure of how fast the partners let go of each other) worked out at 0.00066 s⁻¹ and the kon (commonly the rate constant with which the complex forms) was 98000 M⁻¹ s⁻¹.
Consider II Ac-G5-(V)2.3, for which, in [7], the valency-corrected β (= β ÷ n) stood at 81000 and the β (multivalent binding enhancement = KD vancomycin ÷ KD G5-(V)n) was 190000. In assay [9], the valency-corrected β (= β ÷ n) came to 122 and the β (multivalent binding enhancement = KD vancomycin ÷ KD G5-(V)n) was found to be 280. Further, in [8], the Kd turned out to be 0.0081 µM, the koff was 0.00041 s⁻¹ and the kon came out at 320000 M⁻¹ s⁻¹. In [10], the dissociation constant Kd is 0.0034 µM, the koff came out at 0.00045 s⁻¹ and the on-rate (kon) amounted to 150000 M⁻¹ s⁻¹.
For the compound III Ac-G5-(V)3.5, in assay [7], the valency-corrected β (= β ÷ n) was 210000 and the β (multivalent binding enhancement = KD vancomycin ÷ KD G5-(V)n) amounted to 750000. In [8], the Kd is 0.002 µM, the koff is 0.00045 s⁻¹ and the kon worked out at 640000 M⁻¹ s⁻¹.
Regarding IV Ac-G5-(V)5.8, in assay [7], the valency-corrected β (= β ÷ n) is 150000 and the β (multivalent binding enhancement = KD vancomycin ÷ KD G5-(V)n) worked out at 880000. Also, in assay [9], the valency-corrected β (= β ÷ n) turned out to be 655 and the β (multivalent binding enhancement = KD vancomycin ÷ KD G5-(V)n) turned out to be 3800. Also, in assay [8], the Kd was 0.0017 µM, the koff was 0.00029 s⁻¹ and the kon worked out at 690000 M⁻¹ s⁻¹. Besides, in assay [10], the Kd is 0.00025 µM, the koff was 4.4e-05 s⁻¹ and the kon was found to be 450000 M⁻¹ s⁻¹.
Regarding VI GA-G5-(V)6.0, in assay [7], the valency-corrected β (= β ÷ n) was determined as 74000 and the β (multivalent binding enhancement = KD vancomycin ÷ KD G5-(V)n) was 440000. In addition, in assay [9], the valency-corrected β (= β ÷ n) amounted to 293 and the β (multivalent binding enhancement = KD vancomycin ÷ KD G5-(V)n) worked out at 1760. Further, in assay [8], the Kd amounted to 0.0034 µM, the koff came out at 0.0028 s⁻¹ and the kon turned out to be 1.8e+06 M⁻¹ s⁻¹. In [10], this compound had a Kd of 0.00054 µM, a koff of 0.00036 s⁻¹ and a kon of 670000 M⁻¹ s⁻¹.
Regarding Vancomycin (peptide), the Kd in assay [11] was determined as 1500 µM; in assay [12], 0.95 µM. Also, the β (multivalent binding enhancement = KD vancomycin ÷ KD G5-(V)n) in assay [13] and in [14] was 1 each time.

These data come from patent US20150306238A1, “BACTERIA TARGETING NANOPARTICLES AND RELATED METHODS OF USE” (THE REGENTS OF THE UNIVERSITY OF MICHIGAN, priority 2012, published 2015).
